In paper PMC12809912, “Structural and epitope characterization of anti-DEFA5 monoclonal antibodies clones 1A8 and 4F5 for inflammatory bowel disease subtype diagnostics” (International journal of biological macromolecules, 2025):
Ends that are not written are not given here. * marks the point of attachment. Biotin = O=C1N[C@H]2[C@H](CS[C@H]2CCCCC(=O)*)N1

T1: peptide variant of … with the N-terminal Ala61 deleted (Homo sapiens, UniProt Q01523)
T1 construct: also called N-terminal deletion mutant; source: synthetic peptide (GenScript, >95 % purity)
T1 chain: RATCYCRTGRCATR

T2: peptide No. 57 of the overlapping library, DEFA5 amino acids 61-75 (ARATCYCRTGRCATR) (Homo sapiens)
T2 construct: human DEFA5 amino acids 61-75; source: synthetic peptide (GenScript, >95 % purity)
T2 chain: ARATCYCRTGRCATR

T3: biotinylated DEFA5 epitope peptide Biotin-RATCYCRTGRCAT (Homo sapiens, cysteine pairing not given here)
T3 construct: human DEFA5 residues 62-74; source: synthetic peptide
T3 chain: Biotin-RATCYCRTGRCAT


Key:
Settings in all cases: both partners purified
[1] = biological target: T1, peptide variant of … with the …; test: ELISA; indirect peptide ELISA: peptide coated at 5 ug/mL overnight at 4 C, antibody in PBST with 1 % BSA 2 h at 37 C, HRP goat anti-mouse IgG, OD 450 nm
[2] = biological target: T2, peptide No. 57 of the overlapping …; test: as above
[3] = biological target: T3, biotinylated DEFA5 epitope peptide …; test: SPR; Biacore 8K, Biotin-RATCYCRTGRCAT immobilised on SA chip (~95 RU), antibodies injected 7.81-125 nM, 25 C, HBS-EP+, 30 uL/min, global fit to a 1:1 binding model

binding result [1]	binding result [2]	Kd [3] [nM]	stoichiometry N [3]	Binder
binds	binds	13.5	1	mouse monoclonal antibody clone 1A8 (anti-DEFA5) (antibody, V domains shown, the print has a blank between NYKNT and PIMDTDG; Whole IgG, intact mass ~148.73 kDa; also called mAb 1A8; source: mouse hybridoma clone, purified monoclonal antibody) VH: QVQLQQSGAELVRPGASVKMSCKALGYTFFDYEMHWMKQTPVYGLEWIGAIHPGSGDTAYNQKFKGKATLTADKSSNTAYMELSSLTSEDSAVYYCTREGTVVAPFDYWGQGTTLTVSS VL: DVLMTQTPLSLPVSLGDQASISCRSSQSIVHSNGNTYLEWYLQKPGQSPKLLINKVSNRFSGVPDRFSGSGSGTDFTLKISRVEAEDLGVYYCFQGSYVPYTFGGGTKLEIK
binds	binds	15	1	mouse monoclonal antibody clone 4F5 (anti-DEFA5) (antibody, V domains shown, the print has a blank between NYKNT and PIMDTDG; Whole IgG, intact mass ~148.65 kDa; also called mAb 4F5; source: mouse hybridoma clone, purified monoclonal antibody) VH: QVQLQQSGAELVRPGASVKMSCKALGYTFFDYEMHWMKQTPVYGLEWIGAIHPGSGDTAYNQKFKGKATLTADKSSNTAYMELSSLTSEDSAVYYCTREGTVVAPFDYWGQGTTLTVSS VL: DVLMTQTPLSLPVSLGDQASISCRSSQSIVHSNGNTYLEWYLQKPGQSPKLLINKVSNRFSGVPDRFSGSGSGTDFTLKISRVEAEDLGVYYCFQGSYVPYTFGGGTKLEIK
